One substance from PMC9900518 can be followed below.

In this test the target is GST-BRCA1-CT-M1775R (BRCT), human BRCA1 BRCT domain residues 1599-1863 (human) (UniProt P38398). Put plainly: pull-down; GST-tagged protein immobilised on glutathione-Sepharose beads; purified recombinant His-tagged protein; binding buffer 50 mM Tris-HCl pH 7.4, 100 mM NaCl, 0.4% Nonidet P-40, 10 mM MgCl2, 5 mM EDTA, 2 mM DTT; anti-His immunoblot.

For the substance “His-GIV-CT (aa 1660-1870) wild type (domain or fragment)”, the fold change of binding against GST-BRCA1 BRCT wild type lay within 3 to 5 fold.
